Where a chain is given by its changes, count along the chain named. Blank lines part the entries; values can stand above or below the binder they belong to.
Target: T1, biotinylated human DLL3 protein expressed as a human IgG1 fusion protein (human, UniProt Q9NYJ7 27-492, limits assumed, biotinylated)
T1 sequence: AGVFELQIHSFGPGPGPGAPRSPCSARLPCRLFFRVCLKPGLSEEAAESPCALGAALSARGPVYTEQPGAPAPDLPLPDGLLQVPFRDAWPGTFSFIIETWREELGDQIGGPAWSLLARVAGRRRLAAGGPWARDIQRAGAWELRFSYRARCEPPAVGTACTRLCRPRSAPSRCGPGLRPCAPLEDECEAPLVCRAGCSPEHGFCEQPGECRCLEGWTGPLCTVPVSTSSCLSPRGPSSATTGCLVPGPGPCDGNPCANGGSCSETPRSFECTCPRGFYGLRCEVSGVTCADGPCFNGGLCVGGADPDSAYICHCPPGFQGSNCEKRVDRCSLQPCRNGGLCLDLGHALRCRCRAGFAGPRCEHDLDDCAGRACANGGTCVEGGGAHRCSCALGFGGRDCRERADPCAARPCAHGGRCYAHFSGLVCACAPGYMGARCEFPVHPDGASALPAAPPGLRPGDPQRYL
Test: Octet BLI, single 50 nM
Method in brief: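 Anti-DLL3 trispecific proteins were tested directly from conditioned medium in which their concentrations were known. The tip-captured DLL3 fusion served as the immobilised partner, and binding affinity toward human DLL3 was determined from the Octet measurement.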

B1: 3B011 anti-DLL3 trispecific protein (other)
chain: EVQLVESGGGLVQPGGSLTLSCAASGSSVSFLSMAWYRQAPGKKRELVAGISADGSADYIDSVKGRFTISRDNAKNSVYLQMNSLRAEDTAVYYCYAYRWVTRYTYWGQGTLVTVSS
notes: not shown: linker 1808, anti-albumin sdAb, linker 1808, anti-CD3 fragment, His6 1819
Kd: 9 nM

B10: 3E04 anti-DLL3 trispecific protein (other)
chain: B1 chain with S30H, A53R, A57T, V101T, T105R
notes: as for B1
Kd: 11 nM

B15: 3D05 anti-DLL3 trispecific protein (other)
chain: B1 chain with S30R, A57T, V101T, T102R
notes: as for B1
Kd: 16 nM

B16: 3D08 anti-DLL3 trispecific protein (other)
chain: B1 chain with S30R, D54N, A57T, V101T, T102N
notes: as for B1
Kd: 17 nM

B21: 3C03 anti-DLL3 trispecific protein (other)
chain: B1 chain with S30R, A53R, A57T, D58V, V101T, Y104G
notes: as for B1
Kd: 4.9 nM

B22: 3C08 anti-DLL3 trispecific protein (other)
chain: B1 chain with S30K, A53L, A57T, V101T, T102G
notes: as for B1
Kd: 5.9 nM

B23: 3E09 anti-DLL3 trispecific protein (other)
chain: B1 chain with S30R, A53R, A57T, V101S
notes: as for B1
Kd: 10 nM

B24: 3E02 anti-DLL3 trispecific protein (other)
chain: B1 chain with S28G, S30R, A53P, A57T, V101T, T102R
notes: as for B1
Kd: 12 nM

B25: 3D010 anti-DLL3 trispecific protein (other)
chain: B1 chain with V29K, A57T, D58S, V101T
notes: as for B1
Kd: 14 nM

B26: 3D01 anti-DLL3 trispecific protein (other)
chain: B1 chain with A53R, A57T, V101I
notes: as for B1
Kd: 10 nM

B31: 3F08 anti-DLL3 trispecific protein (other)
chain: B1 chain with S28R, A57T, D58L, V101H
notes: as for B1
Kd: 14 nM

B32: 3C01 anti-DLL3 trispecific protein (other)
chain: B1 chain with S30R, D54H, A57T, V101S
notes: as for B1
Kd: 14 nM

B33: 3E011 anti-DLL3 trispecific protein (other)
chain: B1 chain with S28K, A53R, A57T, V101T, Y106F
notes: as for B1
Kd: 11 nM

B34: 3C011 anti-DLL3 trispecific protein (other)
chain: B1 chain with S30R, D54H, A57T, V101R
notes: as for B1
Kd: 14 nM

B37: 3C06 anti-DLL3 trispecific protein (other)
chain: B1 chain with S27T, M34I, A57T, D61A, V101R
notes: as for B1
Kd: 10 nM

B38: 3D011 anti-DLL3 trispecific protein (other)
chain: B1 chain with F31R, A57R, V101T, T105K
notes: as for B1
Kd: 5.3 nM

B41: 3F06 anti-DLL3 trispecific protein (other)
chain: B1 chain with S28R, A57T, D58S, V101A
notes: as for B1
Kd: 9.9 nM

B42: 3F05 anti-DLL3 trispecific protein (other)
chain: B1 chain with S28K, A53T, A57T, V101T, Y104R
notes: as for B1
Kd: 7.5 nM

B43: 3D02 anti-DLL3 trispecific protein (other)
chain: B1 chain with S30R, A53R, A57T, V101I
notes: as for B1
Kd: 12 nM

B47: 3C05 anti-DLL3 trispecific protein (other)
chain: B1 chain with A23V, S27T, A57T, D58T, V101T, Y104R
notes: as for B1
Kd: 8.2 nM

B49: 3E03 anti-DLL3 trispecific protein (other)
chain: B1 chain with S30R, A53G, A57T, V101M
notes: as for B1
Kd: 20 nM

B51: 3F09 anti-DLL3 trispecific protein (other)
chain: B1 chain with S30R, A53R, A57T, V101G
notes: as for B1
Kd: 12 nM

B52: 3D03 anti-DLL3 trispecific protein (other)
chain: B1 chain with S30V, A57M, V101R
notes: as for B1
Kd: 11 nM

B53: 3C09 anti-DLL3 trispecific protein (other)
chain: B1 chain with A57T, D58I, V101R
notes: as for B1
Kd: 7.8 nM

B55: 3C02 anti-DLL3 trispecific protein (other)
chain: B1 chain with S30R, A57T, D58I, V101R
notes: as for B1
Kd: 9.1 nM

B56: 3D09 anti-DLL3 trispecific protein (other)
chain: B1 chain with F31R, D54N, A57T, D58T, V101T, T105R
notes: as for B1
Kd: 32 nM

B57: 3E01 anti-DLL3 trispecific protein (other)
chain: B1 chain with S30K, A57T, D58M, V101H
notes: as for B1
Kd: 16 nM

Continued, values first:

Kd: 9 nM
B2: 4A09 anti-DLL3 trispecific protein (other)
chain: B1 chain with S30K, A57T, D61G, V101T, Y104V
notes: as for B1

Kd: 20 nM
B3: 3G02 anti-DLL3 trispecific protein (other)
chain: B1 chain with S56R, A57T, V101R
notes: as for B1

Kd: 8.2 nM
B4: 3G01 anti-DLL3 trispecific protein (other)
chain: B1 chain with A57T, D58L, V101T, T105A
notes: as for B1

Kd: 16 nM
B5: 4B06 anti-DLL3 trispecific protein (other)
chain: B1 chain with S28R, A57T, I60F, V101T, T102R
notes: as for B1

Kd: 6.9 nM
B6: 3G010 anti-DLL3 trispecific protein (other)
chain: B1 chain with A53V, A57T, V101R
notes: as for B1

Kd: 9.4 nM
B7: 4A05 anti-DLL3 trispecific protein (other)
chain: B1 chain with M34L, A57T, V101K, Y104R
notes: as for B1

Kd: 12 nM
B8: 4B04 anti-DLL3 trispecific protein (other)
chain: B1 chain with S30L, I51V, A53S, A57T, V101R
notes: as for B1

Kd: 18 nM
B9: 4B05 anti-DLL3 trispecific protein (other)
chain: B1 chain with S28R, S56H, A57T, V101T, Y106H
notes: as for B1

Kd: 9 nM
B11: 4A02 anti-DLL3 trispecific protein (other)
chain: B1 chain with S30R, A53N, A57T, V101K
notes: as for B1

Kd: 24 nM
B12: 4A08 anti-DLL3 trispecific protein (other)
chain: B1 chain with A57T, D58N, V101R
notes: as for B1

Kd: 13 nM
B13: 3G07 anti-DLL3 trispecific protein (other)
chain: B1 chain with A53R, A57T, V101T, T102S
notes: as for B1

Kd: 8.8 nM
B14: 3G04 anti-DLL3 trispecific protein (other)
chain: B1 chain with A23V, S27T, A57T, D58I, V101T, Y104R
notes: as for B1

Kd: 5.6 nM
B17: 4A011 anti-DLL3 trispecific protein (other)
chain: B1 chain with S28K, A57T, D58T, V101K
notes: as for B1

Kd: 2.3 nM
B18: 4A010 anti-DLL3 trispecific protein (other)
chain: B1 chain with S30R, A57T, D58V, V101T, T105K
notes: as for B1

Kd: 14 nM
B19: 3H09 anti-DLL3 trispecific protein (other)
chain: B1 chain with G26K, A57T, V101T, Y104A
notes: as for B1

Kd: 35 nM
B20: 4A04 anti-DLL3 trispecific protein (other)
chain: B1 chain with S28R, D54R, A57T, V101S
notes: as for B1

Kd: 17 nM
B27: 3G011 anti-DLL3 trispecific protein (other)
chain: B1 chain with S28R, A57T, D58G, V101A
notes: as for B1

Kd: 7.1 nM
B28: 3F011 anti-DLL3 trispecific protein (other)
chain: B1 chain with A53T, A57T, V101R
notes: as for B1

Kd: 13 nM
B29: 3H07 anti-DLL3 trispecific protein (other)
chain: B1 chain with S28R, A57T, D58S, V101R
notes: as for B1

Kd: 7.1 nM
B30: 4B02 anti-DLL3 trispecific protein (other)
chain: B1 chain with S28R, A57T, D58T, V101T, Y104F
notes: as for B1

Kd: 7.3 nM
B35: 3G09 anti-DLL3 trispecific protein (other)
chain: B1 chain with F31V, A57T, D61G, V101T, Y104T
notes: as for B1

Kd: 9.9 nM
B36: 3H03 anti-DLL3 trispecific protein (other)
chain: B1 chain with S30R, A53T, A57T, Y98L, V101T
notes: as for B1

Kd: 12 nM
B39: 3G06 anti-DLL3 trispecific protein (other)
chain: B1 chain with S30K, A57T, D58L, V101T, Y104R
notes: as for B1

Kd: 9.8 nM
B40: 4A07 anti-DLL3 trispecific protein (other)
chain: B1 chain with S28K, A57T, D58L, V101T, T105R
notes: as for B1

Kd: 8.6 nM
B44: 3H010 anti-DLL3 trispecific protein (other)
chain: B1 chain with A57T, D58A, V101T, Y104R
notes: as for B1

Kd: 11 nM
B45: 4B01 anti-DLL3 trispecific protein (other)
chain: B1 chain with S30K, A53R, A57T, V101T, Y104F
notes: as for B1

Kd: 13 nM
B46: 4A06 anti-DLL3 trispecific protein (other)
chain: B1 chain with S30R, A53R, A57T, V101T, Y104R
notes: as for B1

Kd: 12 nM
B48: 3G08 anti-DLL3 trispecific protein (other)
chain: B1 chain with S28R, A53K, A57T, V101T, Y104V
notes: as for B1

Kd: 10 nM
B50: 4A01 anti-DLL3 trispecific protein (other)
chain: B1 chain with S30R, A53Q, A57T, V101R
notes: as for B1

Kd: 4.4 nM
B54: 3F010 anti-DLL3 trispecific protein (other)
chain: B1 chain with G26Y, F31R, A57T, D58V, V101T, Y104N
notes: as for B1

Kd: 9 nM
B58: 3H01 anti-DLL3 trispecific protein (other)
chain: B1 chain with A23V, S30K, A53G, A57T, D58T, V101T, Y104R
notes: as for B1

— patent US20240141072A1 (published 2024)
